From PMC11968997
Like-named read-outs stand apart in the source and are kept apart here.

Row | Substance | degradation_or_half_life (other: succinylation at K83) | enzymatic_activity (other: succinylation at K83) | other (other: succinylation at K83) | enzymatic_activity (phosphorylation at S293)
1 | PDHA1: K83R | no change | decreases | increases | –
2 | PDHA1: K83R S293A (compared with K83R) | – | – | – | increases
